Test results reported in patent US20220162327A1, “ANTI-CCR5 AGENTS AND METHODS OF TREATMENT THAT BLOCK CANCER METASTASIS OR ENHANCE CELL DEATH INDUCED BY DNA DAMAGING CHEMOTHERAPY” (CytoDyn Inc., priority 2019, published 2022).
Entries after “also recorded” stand apart in the source; their conditions may differ. Where two headings read alike, the source gives them in different places.

Assays:
MDA-MB-231 cells [1] = experiment: MTT assay, leronlimab combined with doxorubicin; format: cell-based, human; settings: 10 mg/ml leronlimab with different dose of doxorubicin, 3 days
Protocol: FIG. 5A and FIG. 5B. […] The MTT assay was used to determine the relative cell number (FIG. 5A). The cells treated with maraviroc ([…]) combining with different dose of doxorubicin were used as positive control (FIG. 5B). Data are shown as mean±SEM for N=8.

CCR5 [2] = biological target: T1, CCR5 (Homo sapiens, UniProt P51681); settings: CHO-K1 cells, cited from earlier work
T1 sequence (P51681 whole entry): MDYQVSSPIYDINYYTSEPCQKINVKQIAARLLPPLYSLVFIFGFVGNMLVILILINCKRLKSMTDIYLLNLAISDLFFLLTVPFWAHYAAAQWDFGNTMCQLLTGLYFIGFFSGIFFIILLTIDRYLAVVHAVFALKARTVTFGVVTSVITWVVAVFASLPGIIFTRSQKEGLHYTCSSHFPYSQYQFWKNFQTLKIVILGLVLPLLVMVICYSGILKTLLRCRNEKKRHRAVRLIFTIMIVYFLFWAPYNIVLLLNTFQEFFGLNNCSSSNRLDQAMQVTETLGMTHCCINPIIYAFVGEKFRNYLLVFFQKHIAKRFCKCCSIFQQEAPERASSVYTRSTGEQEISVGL

[3] = tested on: CCR5+ metastatic Triple Negative Breast Cancer; experiment: Phase Ib/II study, CTC/EMT/CAML assessment in blood (LifeTrac Assay); format: in vivo, human
From the text: (§1) Each treatment cycle consisted of 21 days. […] This treatment regimen was used for all subjects enrolled in the mTNBC study, unless otherwise indicated.
The blood sample for circulating tumor cells (CTC) and cancer associated macrophage-like cells (CAMLs) assessment was collected at baseline and subsequently at Day 1 of each treatment cycle to assess changes in CTCs and CAMLs after treatment and to perform correlative analysis between CCR5 expression and PD-L1 expression.
Creatv Microtech has developed a size based technology and detection methodology (LifeTrac Assay) that enables the collection and characterization of all cancer associated cells in the blood i.e., CTCs, epithelial mesenchymal transition cells (EMTs) and CAMLs.[Adams Cytometry 2015, Adams RSC 2014]. The CellSieve™ filtration platform is used to capture CAMLs and CTCs.

[4] = tested on: breast cancer tumor model; experiment: Breast cancer tumor model; format: in vivo
From the text: C-C Chemokine receptor type-5 (CCR5) is selectively reexpressed on the surface of tumor cells during the dedifferentiation and transformation process (velasco-velazquez-2012).
Another cancer hallmark that CCR5 presents a potential role is the DNA repair pathways. This cancer characteristic attenuates apoptosis and contributes to chemotherapy resistance and tumor cells immortality. Studies have correlated the altered expression of C-C Chemokine Ligand type-5 (CCL5) with disease progression in patients with breast cancer [Luboshits, 1999] [Niwa, 2001] [Zhang, 2009].

CCR5 [5] = biological target: T1, CCR5; experiment: FACS binding of leronlimab to CCR5 in MDA-MB-231-CCR5 cells; set-up: expressed in transfected cells; host or cells: MDA-MB-231 human breast cancer cell line (MDA-MB-231-CCR5)
From the text: A previously tested commercial APC conjugated mouse anti-human/mouse/rat CCR5 antibody from R&D (FAB1802A) (APC-αCCR5) was used as a positive control to assess CCR5 positive cells.

[6] = Phase Ib/II study, safety; format: in vivo; settings: Subject 706-001, at Cycle 6 Day 1 visit, weekly leronlimab and carboplatin every three weeks
From the text: The primary objective of Phase 1b is to determine the safety, tolerability and maximum tolerate dose (MTD) of PRO 140 in patients with TNBC, when combined with carboplatin to define a recommended Phase II dose of the combination. The primary objective of phase 2b is to evaluate the impact on progression-free survival (PFS) of the combination PRO 140 and carboplatin in patients with CCR5+ TNBC previously treated with anthracyclines and taxanes in neoadjuvant and adjuvant setting.
as §1

MDA-MB-231 cells [7] = experiment: 3D-matrigel invasion assay, CCL5 as chemoattractant; format: cell-based, human
From the text: FIG. 3A, FIG. 3B, FIG. 3C, and FIG. 3D. […] The ability of breast cancer cells to invade extra-cellular matrix is […] an important step in tumor metastasis (Zetter, 1990). To test the ability of PRO140 to block 3D-matrigel invasion assay, MDA-MB-231 cells were used. CCL5 was used as chemoattractant to induce invasion. The small molecule inhibitor of CCR5, vicriviroc, was used as a form of positive control.

CCR5 [8] = biological target: T1, CCR5; set-up: endogenous in cells; host or cells: CD4+ T cells; settings: cited from earlier work
[9] = Subject 706-001, C1D1, with carboplatin
[10] = Subject 706-001, C2D1, with carboplatin
[11] = Subject 706-001, C3D1, with carboplatin
[12] = Subject 706-001, C4D1, with carboplatin
[13] = Subject 706-001, C5D1, with carboplatin
[14] = Subject 706-001, C6D1, with carboplatin
[15] = second subject, after two weeks of treatment, with carboplatin

B1: leronlimab: humanized monoclonal antibody to CCR5; humanized version of the murine mAb PA14 (antibody, chains of the INN, looked up, V domains shown)
VH: EVQLVESGGGLVKPGGSLRLSCAASGYTFSNYWIGWVRQAPGKGLEWIGDIYPGGNYIRNNEKFKDKTTLSADTSKNTAYLQMNSLKTEDTAVYYCGSSFGSNYVFAWFTYWGQGTLVTVSS
VL: DIVMTQSPLSLPVTPGEPASISCRSSQRLLSSYGHTYLHWYLQKPGQSPQLLIYEVSNRFSGVPDRFSGSGSGTDFTLKISRVEAEDVGVYYCSQSTHVPLTFGQGTKVEIK
cell death induced by doxorubicin (MDA-MB-231 cells [1]): augmented cell killing by DNA damage inducing agents including Doxorubicin; also recorded: enhances the cell death induced by doxorubicin
effect on chemotaxis (CCR5 [2]; administered with CCL5): reduces CCL5-induced chemotaxis
effect on chemotaxis (CCR5 [2]; alone): does not affect chemotaxis of CHO-K1 cells
CAML-Total [3, 9]: 1
CTC-Total [3, 9]: 0
EMT-Total [3, 9]: 2
Largest CAML, PD-L1 [3, 9]: 47 μm
Number of Apoptotic CTC, PD-L1 [3, 9]: 0
Number of Apoptotic CTCs, CCR5 [3, 9]: 0
Number of CAMLs, CCR5 [3, 9]: 0
Number of CAMLs, PD-L1 [3, 9]: 1
Number of CTCs, CCR5 [3, 9]: 0
Number of CTCs, PD-L1 [3, 9]: 0
Number of EMTs, CCR5 [3, 9]: 1
Number of EMTs, PD-L1 [3, 9]: 1
CAML-Total [3, 10]: 3
CTC-Total [3, 10]: 0
EMT-Total [3, 10]: 0
Largest CAML, CCR5 [3, 10]: 27 μm
Largest CAML, PD-L1 [3, 10]: 69 μm
Number of Apoptotic CTC, PD-L1 [3, 10]: 0
Number of Apoptotic CTCs, CCR5 [3, 10]: 0
Number of CAMLs, CCR5 [3, 10]: 1
Number of CAMLs, PD-L1 [3, 10]: 2
Number of CTCs, CCR5 [3, 10]: 0
Number of CTCs, PD-L1 [3, 10]: 0
Number of EMTs, CCR5 [3, 10]: 0
Number of EMTs, PD-L1 [3, 10]: 0
Largest CAML, CCR5 [3, 11]: 39 μm
Largest CAML, PD-L1 [3, 11]: 30 μm
Number of Apoptotic CTC, PD-L1 [3, 11]: 0
Number of Apoptotic CTCs, CCR5 [3, 11]: 0
Number of CAMLs, CCR5 [3, 11]: 3
Number of CAMLs, PD-L1 [3, 11]: 1
Number of CTCs, CCR5 [3, 11]: 0
Number of CTCs, PD-L1 [3, 11]: 0
Number of EMTs, CCR5 [3, 11]: 0
Number of EMTs, PD-L1 [3, 11]: 0
CAML-Total [3, 12]: 1
CTC-Total [3, 12]: 0
EMT-Total [3, 12]: 0
Largest CAML, CCR5 [3, 12]: 0 μm
Largest CAML, PD-L1 [3, 12]: 31 μm
Number of Apoptotic CTC, PD-L1 [3, 12]: 0
Number of Apoptotic CTCs, CCR5 [3, 12]: 0
Number of CAMLs, CCR5 [3, 12]: 0
Number of CAMLs, PD-L1 [3, 12]: 1
Number of CTCs, CCR5 [3, 12]: 0
Number of CTCs, PD-L1 [3, 12]: 0
Number of EMTs, CCR5 [3, 12]: 0
Number of EMTs, PD-L1 [3, 12]: 0
CAML-Total [3, 13]: 3
CTC-Total [3, 13]: 0
EMT-Total [3, 13]: 0
Largest CAML, CCR5 [3, 13]: 33 μm
Largest CAML, PD-L1 [3, 13]: 56 μm
Number of Apoptotic CTC, PD-L1 [3, 13]: 0
Number of Apoptotic CTCs, CCR5 [3, 13]: 0
Number of CAMLs, CCR5 [3, 13]: 1
Number of CAMLs, PD-L1 [3, 13]: 2
Number of CTCs, CCR5 [3, 13]: 0
Number of CTCs, PD-L1 [3, 13]: 0
Number of EMTs, CCR5 [3, 13]: 0
Number of EMTs, PD-L1 [3, 13]: 0
CAML-Total [3, 14]: 8
CTC-Total [3, 14]: 0
EMT-Total [3, 14]: 0
CCR5 expression on cancer-associated cells ([3]; first subject, after approximately 11 weeks of treatment): large reductions in CCR5 expression
circulating tumor cells (CTC) or putative metastatic tumor cells in the peripheral blood ([3]; first subject, following 16 weeks of treatment): no detectable circulating tumor cells (CTC) or putative metastatic tumor cells
levels of CTC [3, 15]: no detectable levels of CTC
reduction in EMT cells [3, 15]: 70%
CAML count ([3]; second subject, following at least two weeks of treatment, initial count 45): 30
decrease of total CTC+EMT counts ([3]; third subject, first two weeks of treatment, with carboplatin): 75%
tumor volume [4]: significant reduction in tumor volume
efficiency of binding to CCR5 positive cells (CCR5 [5]): 98%
efficiency of binding to CCR5 positive cells (CCR5 [5]; listed as PRO140): up to 98%
serious adverse events [6]: no serious adverse events had been reported
effect on MDA-MB-231 cell invasion (MDA-MB-231 cells [7]; 175 µg/ml): can effectively block MDA-MB-231 cell invasion
effect on MDA-MB-231 cell invasion (MDA-MB-231 cells [7]; 350 µg/ml): can effectively block MDA-MB-231 cell invasion
effect on CCL5-induced cell invasion (MDA-MB-231 cells [7]; vicriviroc as positive control): reduced CCL5-induced MDA-MB-231 breast cancer cell invasion with similar efficacy as vicriviroc; also recorded: blocked 3D matrigel invasion
effect on cAMP levels (CCR5 [8]; added to CD4+ T cells alone): does not affect cAMP levels
effect on cAMP levels (CCR5 [8]; administered with CCL5): diminishes the effect of CCL5 on cAMP levels
